Assay results reported in publication PMC7327923.

Experiments:
[1] = target: Dps protein from Thermoleptolyngbya sp. O-77 (TlDps1) (Thermoleptolyngbya sp. O-77); experiment: crystal structure; hanging drop, 293 K, TlDps1 4.0 mg/mL in 10 mM Tris/HCl pH 8.0 with 0.15 M cesium chloride and 18% PEG 3350; 2.9 Å; six subunits in the asymmetric unit
[2] = target: Dps protein from Thermoleptolyngbya sp. O-77 (TlDps1) (Thermoleptolyngbya sp. O-77); experiment: SEC-RALS; TlDps1 as isolated, 206 µg/mL; Superdex 200 Increase, 303 K, 10 mM Tris/HCl pH 8.0, 0.5 mL/min
[3] = target: Dps protein from Thermoleptolyngbya sp. O-77 (TlDps1) (Thermoleptolyngbya sp. O-77); experiment: native gel or EMSA; native PAGE, 5-20% gel; TlDps1 in 10 mM Tris/HCl pH 8.0, also after DNase I treatment
[4] = target: Dps protein from Thermoleptolyngbya sp. O-77 (TlDps1) (Thermoleptolyngbya sp. O-77); experiment: SDS/PAGE; 5-20% gel; sample buffer with 2% SDS and 14.4 mM 2-mercaptoethanol; incubated 10 min at 298, 323 or 348 K before loading

Measured: stoichiometry N

Dps protein from Thermoleptolyngbya sp. O-77 (TlDps1) (natural protein)
12: all assays above
